{"source": "paper PMC10598741", "about": "“Comparative analysis of the physical properties of murine and human S100A7: Insight into why zinc piracy is mediated by human but not murine S100A7” (The Journal of Biological Chemistry, 2023)", "target": "the molecule itself", "assay": "crystal structure; Ca2+-loaded mS100A7ΔC at 12 to 14 mg/ml in 20 mM Tris pH 8.0, 100 mM NaCl, 1% glycerol, 1 mM TCEP, 2 mM CaCl2; crystals in 0.1 M potassium thiocyanate, 20% PEG MME 2K, 0.01 M strontium chloride, 20 °C; space group P212121, 1.69 Å"}
{"protein": "mouse S100A7 tailless (mS100A7ΔC), deletion mutant mS100A7(1-100) (domain or fragment, UniProt Q6S5I3 1-100, looked up, mouse S100A7 (S100A15a), UniProt Q6S5I3, residues 1-100: truncated at His100, lacks the last eight residues of the C-terminal tail; Gene synthesised and subcloned in pET11a (NdeI/BamHI); no tag is mentioned; Crystallised Ca2+-loaded; residues R95-H100 are poorly defined in the structure; also called murine S100A7ΔC; S100A15a; source: E. coli BL21 RIL, purified (supernatant heated to 85 °C, DEAE …)) MPDTPVEDSLFQIIHCFHHYAAREGDKETLSLEELKALLLDSVPRFMDTLGRRQPYYITELFRAADKNKDNQICFDEFLYILGKLVKDYHLQFHRQLCAH", "values": [{"measurement": "binding result", "result": "binds"}]}
